# Ends that are not written are not given here.
# Experiments:
# [1] = molecular target: T1, GST-Gadd45β (Mus musculus, UniProt P22339); assay: GST pull-down of in vitro translated MKK7 peptides with GST-Gadd45β; format: binding, murine; conditions: fused to eGFP
# T1 construct: Murine and human, full-length Gadd45J3 proteins were purified from E. coli as GST-Gadd45β and His6-tagged Gadd45β; made in house; host or cells: E. coli BL21 (pGEX-3X)
# T1 sequence (P22339 1-160): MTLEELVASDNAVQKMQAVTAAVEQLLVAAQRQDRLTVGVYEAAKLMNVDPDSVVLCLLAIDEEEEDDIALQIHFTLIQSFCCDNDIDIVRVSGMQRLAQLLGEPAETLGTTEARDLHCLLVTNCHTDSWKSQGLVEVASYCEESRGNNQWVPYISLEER
# [2] = tested on: wild-type MEFs; assay: Apoptosis assay with TAT peptides, wild-type MEFs; format: cell-based, mouse; conditions: HIV-TAT-fused peptides; MEFs at passage 4
# From the text: (§1) A-B, Apoptosis assays showing that peptide 1 effectively promotes killing by TNFα in IκBαM-Gadd45β and Neo 3DO clones, respectively. C-D, Apoptosis assays showing that both peptide 1 and peptide 2 can facilitate TNFα-induced cytotoxicity in wild-type MEFs, and that only peptide 2 promotes this killing in Gadd45β null MEFs, respectively. (C-D), MEFs were from twin embryos and were used at passage (p)4. A-D, Values (expressed as arbitrary units) were obtained by subtracting background values with untreated cells from values with TNFα-treated cells, and represent the mean (+/−standard deviation) of three experiments.
# (§2) Treatments were as follows: murine TNFα (Peprotech), 1,000 U/ml, 10 U/ml, or 1,000 U/ml plus 0.3 μg/ml cycloheximide (CHX; FIG. 33); human TNFα (Peprotech), 2,000 U/ml; PMA plus ionomycin (Sigma), 100 ng/ml and 1 μM, respectively. Treatments with H2O2 and sorbitol were as described previously. In FIG. 33, pre-treatment with HIV-TAT peptides (5 μM) or DMSO was for 30 minutes and incubation with TNFα was for an additional 4 and 3.5 hours, respectively. In FIG. 33, peptides were used at 10 μM and incubation with TNFα was for 4 hours. Apoptosis was measured by using the Cell Death Detection ELISA PLUS kit (Roche). […]
# [3] = tested on: gadd45β−/− MEFs; assay: Apoptosis assay with TAT peptides, Gadd45β null MEFs; format: cell-based, mouse; conditions: HIV-TAT-fused peptides; MEFs at passage 4
# From the text: as §1, §2
# [4] = molecular target: T2, MKK7 inhibition by Gadd45β (Mus musculus, UniProt P22339); assay: MKK7 kinase assay: peptide interference with MKK7 inhibition by Gadd45β; format: biochemical; conditions: GST-Gadd45β pre-incubated with peptides 20 min; FLAG-MKK7 from TNFα-treated 293 cells
# T2 construct: Murine and human, full-length Gadd45J3 proteins were purified from E. coli as GST-Gadd45β and His6-tagged Gadd45β; made in house; host or cells: GST-Gadd45β from E. coli; FLAG-MKK7 immunoprecipitated from transfected, TNFα-treated 293 cells
# T2 sequence (P22339 1-160): T1 sequence (P22339 1-160)
# Experimental: (§3) FLAG-MKK7 was immunoprecipitated from TNFα-treated (10 minutes) 293 cells. b, c, are apoptosis assays showing that peptide 1 promotes killing by TNFα in IκBαM-Gadd45β and Neo clones, respectively. Values (expressed as arbitrary units) were obtained by subtracting background values with untreated cells from values with TNFα-treated cells, and represent the mean (+/−standard deviation) of three experiments.
# To define interaction regions and determine whether they are sufficient for binding, Gadd45β association with overlapping peptides spanning these regions (FIG. 29e) was determined. […] This is reminiscent of the mechanism by which p27^KIP1 inhibits cyclin-dependent kinase (CDK)2. A question explored was whether MKK7, Gadd45β-binding peptides interfered with the Gadd45β ability to suppress kinase activity.
# GST precipitations with in vitro-translated proteins or purified proteins (FIG. 26-30), and kinase assays were performed. […] MKK7 phosphorylation was monitored by performing immunoprecipitations with anti-P-MKK7 antibodies (developed at Cell Signaling) followed by Western blots with anti-total MKK7 antibodies. […]
# [5] = tested on: IκBαM-Gadd45β 3DO cells; assay: Apoptosis assay (Cell Death Detection ELISA) with TAT peptides, IκBαM-Gadd45β 3DO clones; conditions: for TNFα-induced killing of IκBαM-Gadd45β cells: HIV-TAT-fused peptides 5 μM, 30 min pre-treatment, then TNFα
# Experimental: Treatments were as follows: murine TNFα (Peprotech), 1,000 U/ml (FIG. 27) or 10 U/ml (FIG. 30); human TNFα (Peprotech), 2,000 U/ml; PMA plus ionomycin (Sigma), 100 ng/ml and 1 μM, respectively. In FIG. 30, pre-treatment with HIV-TAT peptides (5 μM) or DMSO was for 30 minutes and incubation with TNFα was for an additional 7 and 3.5 hours, respectively. Apoptosis was measured by using the Cell Death Detection ELISA^PLUS kit (Roche).
# Treatments were as follows: murine TNFα (Peprotech), 1,000 U/ml, 10 U/ml, or 1,000 U/ml plus 0.3 μg/ml cycloheximide (CHX; FIG. 33); human TNFα (Peprotech), 2,000 U/ml; PMA plus ionomycin (Sigma), 100 ng/ml and 1 μM, respectively. […] In FIG. 33, pre-treatment with HIV-TAT peptides (5 μM) or DMSO was for 30 minutes and incubation with TNFα was for an additional 4 and 3.5 hours, respectively. In FIG. 33, peptides were used at 10 μM and incubation with TNFα was for 4 hours. Apoptosis was measured by using the Cell Death Detection ELISA PLUS kit (Roche).
# [6] = tested on: Neo 3DO cells (NF-κB-proficient); assay: Apoptosis assay (Cell Death Detection ELISA) with TAT peptides, Neo 3DO clones; format: cell-based
# Experimental: as §3
# A-B, Apoptosis assays showing that peptide 1 effectively promotes killing by TNFα in IκBαM-Gadd45β and Neo 3DO clones, respectively. […] A-D, Values (expressed as arbitrary units) were obtained by subtracting background values with untreated cells from values with TNFα-treated cells, and represent the mean (+/−standard deviation) of three experiments.
# Treatments were as follows: murine TNFα (Peprotech), 1,000 U/ml (FIG. 27) or 10 U/ml (FIG. 30); human TNFα (Peprotech), 2,000 U/ml; PMA plus ionomycin (Sigma), 100 ng/ml and 1 μM, respectively. […] Apoptosis was measured by using the Cell Death Detection ELISA^PLUS kit (Roche).
# Treatments were as follows: murine TNFα (Peprotech), 1,000 U/ml, 10 U/ml, or 1,000 U/ml plus 0.3 μg/ml cycloheximide (CHX; FIG. 33); human TNFα (Peprotech), 2,000 U/ml; PMA plus ionomycin (Sigma), 100 ng/ml and 1 μM, respectively. […] Apoptosis was measured by using the Cell Death Detection ELISA PLUS kit (Roche). […]
# [7] = molecular target: T3, GST-MKK7 (Homo sapiens, UniProt O14733, Q133P/Q94H); assay: GST pull-down, GST-MKK7-coated beads with in vitro-translated Gadd45β products; format: binding
# T3 construct: made in house; host or cells: E. coli BL21
# T3 sequence (O14733 1-401 Q94H/Q133P limits assumed): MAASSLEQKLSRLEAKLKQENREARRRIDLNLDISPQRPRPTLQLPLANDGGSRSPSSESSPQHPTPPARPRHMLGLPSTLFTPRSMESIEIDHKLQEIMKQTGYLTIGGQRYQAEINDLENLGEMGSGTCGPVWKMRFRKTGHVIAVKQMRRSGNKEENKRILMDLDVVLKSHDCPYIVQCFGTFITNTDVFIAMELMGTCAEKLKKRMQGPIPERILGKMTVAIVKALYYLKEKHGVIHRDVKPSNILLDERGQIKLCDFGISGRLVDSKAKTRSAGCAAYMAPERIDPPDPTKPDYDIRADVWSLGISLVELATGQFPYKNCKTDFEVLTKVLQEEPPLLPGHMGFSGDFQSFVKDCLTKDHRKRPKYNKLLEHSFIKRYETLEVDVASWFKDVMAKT
# Experimental: GST pull-down assays were performed using GST- or GST-MKK7-coated beads and in vitro-translated, Gadd45β products corresponding to the polypeptidic fragments indicated in FIG. 36A.
# To generate Gadd45β polypeptides, in vitro reactions were primed with pBS-GFP-Gadd450 plasmids, encoding green fluorescent protein (GFP) directly fused to FL or truncated Gadd45β. To obtain these plasmids, pBS-Gadd45β(FL), pBS-Gadd45β (41-160), pBS-Gadd45 (60-160), pBS-Gadd45β (69-160), pBS-Gadd45β (87-160), and pBS-Gadd45β (113-160)—encoding the corresponding amino acid residues of murine Gadd45β were generated—by cloning appropriate gadd45β cDNA fragments into the XhoI and HindIII sites of pBS SK−. These plasmids, encoding either FL or truncated Gadd45β, were then opened with KpnI and XhoI, and the excised DNA fragments were replaced with the KpnI-BsrGI fragment of pEGFP-N1 (Clontech; containing the GFP-coding sequence) directly joined to the following oligonucleotide linker: 5′-[…]-3′ (SEQ ID NO: 48). These constructs were designated as pBS-GFP-Gadd45β. Gadd45β C-terminal deletions were obtained as described for the JNKK2 deletions by using pBS-GFP-Gadd45β(FL) that had been digested with the NgoMI, SphI, or EcoRV restriction enzymes to direct protein synthesis in vitro. These plasmids encoded the 1-134, 1-95, and 1-68 amino acid fragments of Gadd45β, respectively. […]
Substance,binding to GST-Gadd45β [1],cytokine (TNFα)-induced toxicity in wild-type fibroblasts [2],TNFα-induced killing in gadd45β−/− MEFs [3],prevention of MKK7 inhibition by Gadd45β [4],TNFα-induced killing of IκBαM-Gadd45β cells [5],"toxicity in untreated Neo cells ([6]; HIV-TAT-fused peptide, no TNFα)","TNFα-induced killing of NF-κB-proficient (Neo) cells ([6]; HIV-TAT-fused peptides 5 μM, 30 min pre-treatment, then TNFα)","basal toxicity in IκBαM-Gadd45β cells ([5]; HIV-TAT-fused peptide, no TNFα)",binding to MKK7 in vitro [7]
"NH2-TGHVIAVKQMRRSGNKEENKRILMD-COOH (H-TGHVIAVKQMRRSGNKEENKRILMD-OH; listed as Homo sapiens) [peptide 2, aa 142-166 of MKK7/JNKK2]",does not bind,enhanced,"retained (and, in fact, enhanced)",,,,,,
"peptide 7: MKK7 peptide 220-234, Gadd45β-interacting; fused to HIV-TAT peptide for cell assays (GKMTVAIVKALYYLK; also: fused to HIV-TAT peptide for cell assays; listed as Homo sapiens)",sufficient to recapitulate this binding,,,did not,no effect,,,,
"peptide 1: MKK7 peptide 132-156, Gadd45β-interacting, spans ATP-binding site K149; fused to cell-permeable HIV-TAT peptide for cell assays (GPVWKMRFRKTGHVIAVKQMRRSGN; also: fused to HIV-TAT peptide for cell assays; listed as Homo sapiens)",sufficient to recapitulate this binding,enhanced,completely insensitive,prevented MKK7 inhibition by Gadd45β,markedly increased susceptibility,minimal toxicity,promoted TNFα-induced killing,marginal basal toxicity,
"IALQIHFTLIQSFCCDND [69-86 amino acid region of Gadd45β, positions 69-86 of Gadd45β]",,,,,,,,,sufficient to bind to MKK7
